This is an account of results in the supplement of paper PMC9112550, “Optimization of the antimicrobial peptide Bac7 by deep mutational scanning” (BMC Biology, 2022).
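Note: peptides expressed intracellularly from a pBAD plasmid library in pooled LB shake-flask culture, induced with 0.3% L-arabinose, DNA abundance read by NGS, three biological replicates, DESeq2 with apeglm shrinkage.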

The data set deals with Escherichia coli TOP10. As to the kind of experiment: shrunken log2 fold change of peptide-encoding DNA abundance (4.5 h post-induction vs induction); higher = less antimicrobial activity (less host growth inhibition). The conditions noted are these: time post-induction: 4.5 h; library: site-saturation at positions 5, 18, 19, 20.
Turning to RRIRYRPPRLPRPRPRPYCDPRP, the “shrunken log2 fold change” value was -0.379.

Consider RRIRPRPPRLPRPRPRPDTPPRP, for which the “shrunken log2 fold change” value came to 0.0412.

For the sequence RRIRRRPPRLPRPRPRPQVVPRP, the “shrunken log2 fold change” value came to 0.0705.

For RRIRERPPRLPRPRPRPVSCPRP, the “shrunken log2 fold change” value was 0.182.

Take RRIRSRPPRLPRPRPRPSACPRP: the “shrunken log2 fold change” value was -0.0945.

Turning to RRIRIRPPRLPRPRPRPRRPPRP, the “shrunken log2 fold change” value was determined as 0.233.

RRIRGRPPRLPRPRPRPCCGPRP: the “shrunken log2 fold change” value was determined as 0.781.

Take RRIRRRPPRLPRPRPRPGDEPRP: the “shrunken log2 fold change” value is -0.0622.

Take RRIRIRPPRLPRPRPRPEVYPRP: the “shrunken log2 fold change” value is -0.0738.

On to RRIRCRPPRLPRPRPRPHPIPRP, for which the “shrunken log2 fold change” value is -0.229.

On to RRIRWRPPRLPRPRPRPKRAPRP, for which the “shrunken log2 fold change” value is 0.797.

As for RRIRNRPPRLPRPRPRPCSQPRP, the “shrunken log2 fold change” value is -0.0135.

For RRIRCRPPRLPRPRPRPDPTPRP, the “shrunken log2 fold change” value amounted to 0.0668.

RRIRCRPPRLPRPRPRPPHRPRP: the “shrunken log2 fold change” value is 0.854.

In the case of RRIRTRPPRLPRPRPRPAFDPRP, the “shrunken log2 fold change” value was 0.161.

With RRIRHRPPRLPRPRPRPVWKPRP, the “shrunken log2 fold change” value was -0.00992.

RRIRFRPPRLPRPRPRPIMMPRP: the “shrunken log2 fold change” value is -0.529.

Consider RRIRVRPPRLPRPRPRPEMQPRP, for which the “shrunken log2 fold change” value worked out at 0.175.

As for RRIRIRPPRLPRPRPRPYDGPRP, the “shrunken log2 fold change” value was -0.0104.

In the case of RRIRDRPPRLPRPRPRPWPQPRP, the “shrunken log2 fold change” value was -0.121.

Regarding RRIRERPPRLPRPRPRPWETPRP, the “shrunken log2 fold change” value was determined as 0.11.

On to RRIRERPPRLPRPRPRPKHVPRP, for which the “shrunken log2 fold change” value was -0.146.

RRIRYRPPRLPRPRPRPKFIPRP: the “shrunken log2 fold change” value was -1.39.

For RRIRRRPPRLPRPRPRPGCCPRP, the “shrunken log2 fold change” value stood at 0.589.

For the sequence RRIRKRPPRLPRPRPRPEYYPRP, the “shrunken log2 fold change” value is -0.053.

For the sequence RRIRVRPPRLPRPRPRPSWMPRP, the “shrunken log2 fold change” value was -0.139.

Regarding RRIRKRPPRLPRPRPRPWVTPRP, the “shrunken log2 fold change” value is 0.000269.

Turning to RRIRDRPPRLPRPRPRPAPYPRP, the “shrunken log2 fold change” value is -0.352.

Regarding RRIRVRPPRLPRPRPRPNTSPRP, the “shrunken log2 fold change” value is -0.391.

For RRIRTRPPRLPRPRPRPQEKPRP, the “shrunken log2 fold change” value was -0.0148.

Regarding RRIRKRPPRLPRPRPRPFGWPRP, the “shrunken log2 fold change” value came out at 0.682.

Take RRIRMRPPRLPRPRPRPAGFPRP: the “shrunken log2 fold change” value is 0.733.

Take RRIRSRPPRLPRPRPRPPTGPRP: the “shrunken log2 fold change” value was 0.369.

For RRIRQRPPRLPRPRPRPTSGPRP, the “shrunken log2 fold change” value is -0.0104.

Turning to RRIRVRPPRLPRPRPRPVCYPRP, the “shrunken log2 fold change” value amounted to 0.0382.

Consider RRIRTRPPRLPRPRPRPRDHPRP, for which the “shrunken log2 fold change” value was 0.0565.

For the sequence RRIRHRPPRLPRPRPRPQEWPRP, the “shrunken log2 fold change” value was -0.119.

For the sequence RRIRRRPPRLPRPRPRPTLIPRP, the “shrunken log2 fold change” value worked out at 0.157.

For the sequence RRIRQRPPRLPRPRPRPDRLPRP, the “shrunken log2 fold change” value is -0.0692.

Regarding RRIRHRPPRLPRPRPRPYPDPRP, the “shrunken log2 fold change” value stood at 0.0372.

Take RRIRNRPPRLPRPRPRPRKQPRP: the “shrunken log2 fold change” value turned out to be 0.215.

Regarding RRIRVRPPRLPRPRPRPWAAPRP, the “shrunken log2 fold change” value was found to be 0.049.

With RRIRERPPRLPRPRPRPQCWPRP, the “shrunken log2 fold change” value is -0.0051.

As for RRIRSRPPRLPRPRPRPGTWPRP, the “shrunken log2 fold change” value was 0.358.

With RRIRTRPPRLPRPRPRPSQNPRP, the “shrunken log2 fold change” value was -0.00631.

As to RRIRHRPPRLPRPRPRPYWIPRP, the “shrunken log2 fold change” value was -0.124.

For the sequence RRIRYRPPRLPRPRPRPCICPRP, the “shrunken log2 fold change” value was -0.0423.

As for RRIRIRPPRLPRPRPRPDGHPRP, the “shrunken log2 fold change” value is -0.153.

With RRIRARPPRLPRPRPRPMLFPRP, the “shrunken log2 fold change” value was 0.674.

Regarding RRIRRRPPRLPRPRPRPDNHPRP, the “shrunken log2 fold change” value was -0.215.

As to RRIRHRPPRLPRPRPRPNPNPRP, the “shrunken log2 fold change” value is -0.202.

RRIRTRPPRLPRPRPRPGMEPRP: the “shrunken log2 fold change” value was 0.013.

As to RRIRDRPPRLPRPRPRPHFTPRP, the “shrunken log2 fold change” value is -0.307.

For RRIRLRPPRLPRPRPRPFTRPRP, the “shrunken log2 fold change” value was -0.0482.

For the sequence RRIRIRPPRLPRPRPRPGSVPRP, the “shrunken log2 fold change” value was -0.258.

As to RRIRKRPPRLPRPRPRPKKYPRP, the “shrunken log2 fold change” value was -0.149.

On to RRIRLRPPRLPRPRPRPASIPRP, for which the “shrunken log2 fold change” value came to 0.0291.

For the sequence RRIRQRPPRLPRPRPRPYESPRP, the “shrunken log2 fold change” value is -0.261.

Consider RRIRERPPRLPRPRPRPRCVPRP, for which the “shrunken log2 fold change” value worked out at 0.0448.

In the case of RRIRYRPPRLPRPRPRPCKVPRP, the “shrunken log2 fold change” value is -0.422.

As to RRIRLRPPRLPRPRPRPTFVPRP, the “shrunken log2 fold change” value was -0.162.

Consider RRIRWRPPRLPRPRPRPVFQPRP, for which the “shrunken log2 fold change” value stood at 0.183.

With RRIRMRPPRLPRPRPRPFEVPRP, the “shrunken log2 fold change” value is -0.0748.

Consider RRIRTRPPRLPRPRPRPCVIPRP, for which the “shrunken log2 fold change” value was -0.029.

Regarding RRIRQRPPRLPRPRPRPYCRPRP, the “shrunken log2 fold change” value was -0.00101.

In the case of RRIRIRPPRLPRPRPRPVDHPRP, the “shrunken log2 fold change” value was -0.498.

Consider RRIRNRPPRLPRPRPRPMMWPRP, for which the “shrunken log2 fold change” value is -0.0283.

Take RRIRTRPPRLPRPRPRPEYPPRP: the “shrunken log2 fold change” value was -0.449.

In the case of RRIRGRPPRLPRPRPRPSEEPRP, the “shrunken log2 fold change” value came to 0.503.

For RRIRSRPPRLPRPRPRPDEWPRP, the “shrunken log2 fold change” value was -0.00195.

Regarding RRIRSRPPRLPRPRPRPPEGPRP, the “shrunken log2 fold change” value amounted to 0.704.

Take RRIRARPPRLPRPRPRPKMMPRP: the “shrunken log2 fold change” value was found to be 0.105.

Consider RRIRDRPPRLPRPRPRPEILPRP, for which the “shrunken log2 fold change” value was -0.101.

With RRIRYRPPRLPRPRPRPSTWPRP, the “shrunken log2 fold change” value was -0.647.

On to RRIRKRPPRLPRPRPRPCFCPRP, for which the “shrunken log2 fold change” value was 0.0588.

Take RRIRSRPPRLPRPRPRPWWYPRP: the “shrunken log2 fold change” value was -0.0611.

On to RRIRGRPPRLPRPRPRPESPPRP, for which the “shrunken log2 fold change” value worked out at 1.25.

With RRIRARPPRLPRPRPRPADAPRP, the “shrunken log2 fold change” value turned out to be 0.473.

In the case of RRIRRRPPRLPRPRPRPLDEPRP, the “shrunken log2 fold change” value turned out to be 0.632.

In the case of RRIRHRPPRLPRPRPRPEVMPRP, the “shrunken log2 fold change” value was -0.0878.

Regarding RRIRNRPPRLPRPRPRPFHEPRP, the “shrunken log2 fold change” value is -0.00822.

Turning to RRIRRRPPRLPRPRPRPHFQPRP, the “shrunken log2 fold change” value is -0.0173.

With RRIRPRPPRLPRPRPRPHWEPRP, the “shrunken log2 fold change” value is -0.146.

As to RRIRHRPPRLPRPRPRPLKEPRP, the “shrunken log2 fold change” value was -0.0179.

Regarding RRIRNRPPRLPRPRPRPANDPRP, the “shrunken log2 fold change” value was -0.392.

For RRIRQRPPRLPRPRPRPTFLPRP, the “shrunken log2 fold change” value is -0.358.

As to RRIRCRPPRLPRPRPRPLYPPRP, the “shrunken log2 fold change” value is -0.729.

Turning to RRIRKRPPRLPRPRPRPLKLPRP, the “shrunken log2 fold change” value came to 0.0766.

With RRIRYRPPRLPRPRPRPRAGPRP, the “shrunken log2 fold change” value was found to be 0.461.

For RRIRYRPPRLPRPRPRPGLNPRP, the “shrunken log2 fold change” value is -0.489.

For the sequence RRIRYRPPRLPRPRPRPYVIPRP, the “shrunken log2 fold change” value was -1.19.
